In data set [1] the target is Rap1 without His-tag, labelled with Alexa Fluor 488 (human) (UniProt Q9NYB0). The data set can be described thus: fluorescence polarisation; fluorescence anisotropy; TRF2noHis titrated into 100 nM Rap1noHis labelled with Alexa Fluor 488; 50 mM NaCl, 50 mM sodium phosphate pH 7.0, 25 C; concentration as TRF2 dimer. Background: Fluorescence polarisation rises when a labelled molecule tumbles more slowly, as on binding a larger partner.

Data set [2] has as its target Rap1, full-length, N-terminal His6-tag, labelled with Alexa Fluor 594 (human) (UniProt Q9NYB0). The data set can be described thus: fluorescence polarisation; fluorescence anisotropy; TRF2 titrated into 100 nM Rap1 labelled with Alexa Fluor 594; PBST (Phosphate Buffered Saline with Tween 20, ~140 mM NaCl); concentration as TRF2 dimer.
For data set [3] the target is unchanged. The data set can be described thus: fluorescence polarisation; fluorescence anisotropy; TRF2 titrated into 100 nM Rap1 labelled with Alexa Fluor 594; 50 mM NaCl, 50 mM sodium phosphate pH 7.0 with 1 mM DTT; concentration as TRF2 dimer.
In data set [4] the target is T1, Rap1 (human, UniProt Q9NYB0 1-399).
T1 sequence: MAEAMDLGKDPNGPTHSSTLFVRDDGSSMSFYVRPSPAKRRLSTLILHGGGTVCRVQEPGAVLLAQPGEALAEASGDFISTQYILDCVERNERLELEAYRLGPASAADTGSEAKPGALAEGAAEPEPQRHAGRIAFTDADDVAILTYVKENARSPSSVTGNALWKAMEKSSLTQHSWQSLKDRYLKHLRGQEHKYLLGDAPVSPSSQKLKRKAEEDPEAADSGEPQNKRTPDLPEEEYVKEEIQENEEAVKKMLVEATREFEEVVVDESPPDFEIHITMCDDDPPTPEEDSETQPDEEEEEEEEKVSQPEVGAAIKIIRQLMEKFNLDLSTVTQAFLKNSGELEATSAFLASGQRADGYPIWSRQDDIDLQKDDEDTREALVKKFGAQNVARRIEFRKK
The data set can be described thus: EMSA; up to Rap1:DNA 40:1; FA: 50 mM NaCl, 50 mM sodium phosphate pH 7.0, 25 °C, 7.5 nM DNA; EMSA: same buffer, 15 min on ice, 5% (or 4%) PAGE in 0.25x TBE at 4 °C; SPR: PBST. The following applies: protein: recombinant; tags: N-terminal His6; label: Alexa Fluor 488 at 3' end of one strand; blunt. On the technique in general: In EMSA bound probe runs differently from free probe, usually more slowly.

For data set [5], the target named is T1, Rap1. The data set can be described thus: fluorescence anisotropy; FA: 50 mM NaCl, 50 mM sodium phosphate pH 7.0, 25 °C, 7.5 nM DNA; EMSA: same buffer, 15 min on ice, 5% (or 4%) PAGE in 0.25x TBE at 4 °C; SPR: PBST. The settings on record: protein: recombinant; tags: N-terminal His6; label: Alexa Fluor 488 (FA); 5' biotin on S6 in SPR; 3' overhang 6 nt.
Data set [6] addresses Telomeric Repeat binding Factor 2 (TRF2), full-length, N-terminal His6-tag (human). The data set can be described thus: SPR; TRF2 immobilised by amine coupling on ProteOn GLC chip; Rap1 as analyte (methods: 80-5 nM; key of Figure S4A: 160-10 nM); PBST; 240 s injection at 100 ul/min, 1200 s dissociation; equilibrium responses fitted with a simple bimolecular equilibrium model. (In general: Surface plasmon resonance follows binding to a sensor surface in real time, without labels.)

For data set [7], the target named is T1, Rap1. The data set can be described thus: SPR; PBST; FA: 50 mM NaCl, 50 mM sodium phosphate pH 7.0, 25 °C, 7.5 nM DNA; EMSA: same buffer, 15 min on ice, 5% (or 4%) PAGE in 0.25x TBE at 4 °C; SPR: PBST. The following applies: protein: recombinant; tags: N-terminal His6; label: 5' biotin on S6; blunt.

The Kd is a measure of binding affinity in units of concentration. For the molecule TRF2 without His-tag (natural protein), the Kd in data set [1] amounted to 49 nM.

On to “Telomeric Repeat binding Factor 2 (TRF2), full-length, N-terminal His6-tag (natural protein)”, for which the Kd was determined as 64 nM in data set [2] and 44 nM in data set [3].

B1: R2 (dsDNA)
DNA 1: GTTAGGGTTAGGGTTAG
DNA 2: CTAACCCTAACCCTAAC
modifications: 3'-C6 aminoalkyl linker on one strand
Regarding B1, in the data set with Rap1 [4], the binding result is “no binding”.

B2: R5 (dsDNA)
DNA 1: GTTAGGGTTAGGGTTAGGGTTAGGGTTAGGGTTAG
DNA 2: CTAACCCTAACCCTAACCCTAACCCTAACCCTAAC
modifications: 3'-C6 aminoalkyl linker on one strand
With B2, the binding result with Rap1 [4] is given as “no binding”.

B3: Overhang_SR2 (mixed)
DNA 1: CTAACTTAGGGTTAGGGTTAGGGTTAG
DNA 2: CTAACCCTAACCCTAAGTTAG
As to B3, in the data set with Rap1 [5], the binding result is given as “no binding”.

B4: Repressor activator protein 1 (Rap1), full-length, N-terminal His6-tag (natural protein)
chain: T1 sequence
Regarding B4, the Kd in data set [6] is 44 nM.

B5: SR2 (dsDNA)
DNA 1: CTAACTTAGGGTTAGGGTTAG
DNA 2: CTAACCCTAACCCTAAGTTAG
As to B5, the binding result with Rap1 [7] is given as “no binding”.

The values are drawn from article PMC4357705, “Human Rap1 modulates TRF2 attraction to telomeric DNA”.
